Measured values taken from IntAct's records for PubMed 9082982.

Target: sap18_drome Bin1 (UniProt Q9VEX9)
Sequence (Q9VEX9 whole entry): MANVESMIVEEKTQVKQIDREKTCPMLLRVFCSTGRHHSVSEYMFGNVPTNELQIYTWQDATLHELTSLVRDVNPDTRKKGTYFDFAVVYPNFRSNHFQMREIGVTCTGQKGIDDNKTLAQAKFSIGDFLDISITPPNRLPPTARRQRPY

Cell division control protein 42 homolog (Homo sapiens), P60953 D118A, sequence (P60953 whole entry D118A): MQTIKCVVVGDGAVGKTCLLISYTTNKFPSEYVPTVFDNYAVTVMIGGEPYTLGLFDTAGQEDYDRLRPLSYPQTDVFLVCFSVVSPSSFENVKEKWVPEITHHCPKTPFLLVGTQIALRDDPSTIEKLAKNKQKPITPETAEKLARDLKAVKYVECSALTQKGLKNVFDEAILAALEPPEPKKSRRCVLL
Cell division control protein 42 homolog (Homo sapiens), P60953 G12V, sequence (P60953 whole entry G12V): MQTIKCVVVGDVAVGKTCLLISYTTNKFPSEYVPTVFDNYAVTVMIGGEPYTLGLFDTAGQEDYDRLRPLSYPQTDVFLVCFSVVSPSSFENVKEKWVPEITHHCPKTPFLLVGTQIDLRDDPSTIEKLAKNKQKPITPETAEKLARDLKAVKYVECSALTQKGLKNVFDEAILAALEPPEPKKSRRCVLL

Row | Substance | effect of a mutation on the interaction
1 | Cell division control protein 42 homolog (Homo sapiens), P60953 D118A | disrupting interaction
2 | Cell division control protein 42 homolog (Homo sapiens), P60953 G12V | increasing interaction
